Laboratory results reported in patent publication US9260500B2, “Peptide and use thereof” (Takeda Pharmaceutical Company Limited, priority 2009, dated 2016).
Starred links: 1 amine or outer side, 2 acyl side, 3 side chain; linkers in the order of their positions; H or OH if unused. Non-standard residues stand in square brackets, D forms with d. Tyr(Me) = O-methyltyrosine, COc1ccc(C[C@H](N[*:1])C(=O)[*:2])cc1; Phe(3-Me) = Cc1cccc(C[C@H](N)C(=O)O)c1; Phe(4-F) = N[C@@H](Cc1ccc(F)cc1)C(=O)O; 1Nal = N[C@@H](Cc1cccc2ccccc12)C(=O)O; Phe(2-Me) = Cc1ccccc1C[C@H](N)C(=O)O; 4Pal = N[C@@H](Cc1ccncc1)C(=O)O; Cha = N[C@@H](CC1CCCCC1)C(=O)O; dIva = CC[C@@](C)(N)C(=O)O; Iva = CC[C@](C)(N)C(=O)O; NMeA = CN[C@@H](C)C(=O)O; Aib = CC(C)(N)C(=O)O; Sar = CNCC(=O)O

Legend:
human Y2 receptor [1] = molecular target: T1, human Y2 receptor (Homo sapiens, UniProt P49146); assay: Receptor Binding Assay (RBA) for Human Y2, [125I]-PYY displacement on hY2R/CHO membrane fraction; conditions: IC50 of test compound/IC50 of PYY(3-36) (PYY(3-36) taken as 1)
T1 construct: expressed in transfected cells; membrane fraction
T1 sequence (P49146 1-381): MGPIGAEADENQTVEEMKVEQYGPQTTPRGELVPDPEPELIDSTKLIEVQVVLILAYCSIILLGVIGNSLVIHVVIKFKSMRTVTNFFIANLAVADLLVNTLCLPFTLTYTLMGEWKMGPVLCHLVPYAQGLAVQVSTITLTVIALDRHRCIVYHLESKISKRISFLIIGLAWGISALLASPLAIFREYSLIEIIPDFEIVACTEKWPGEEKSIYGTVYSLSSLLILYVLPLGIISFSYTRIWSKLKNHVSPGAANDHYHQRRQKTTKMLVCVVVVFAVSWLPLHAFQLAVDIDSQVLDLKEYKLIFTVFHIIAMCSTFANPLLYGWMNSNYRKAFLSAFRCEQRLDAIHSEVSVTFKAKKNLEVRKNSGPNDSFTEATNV
How it was run: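 Read-out is [125I]-PYY displacement from membranes of CHO/dhfr− cells stably transfected with human Y2R. Membranes were obtained by disrupting cells in a buffer of 10 mM NaHCO3, 5 mM EDTA and protease inhibitors.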

human Y2 receptor [2] = molecular target: T1, human Y2 receptor; assay: Human Y2 Receptor G Protein Binding Assay (GBA), [35S]GTPγS; type: biochemical; conditions: EC50 of test compound/EC50 of PYY(3-36) (PYY3-36 taken as 1), hY2R/CHO membrane fraction
How it was run: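 Agonism measured as [35S]GTPγS binding, read by GF/C filtration and scintillation counting after 120 min at room temperature, using human Y2 membranes at 1 μg protein/mL in pH 7.4 Tris/MgCl2/NaCl/GDP buffer. Compound serially diluted 100 μM–1 nM; EC50 normalized to PYY(3-36) (ratio = compound/PYY).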

| Substance | RBA IC50 Ratio (human Y2 receptor [1]) | GBA EC50 Ratio (human Y2 receptor [2]) |
| --- | --- | --- |
| Ac-[D-Pro24, Pya(4)26, Cha27,36, Aib28, Lys30, Iva31]-PYY(23-36) (Ac-S[dP]R[4Pal][Cha][Aib]NK[Iva]TRQR[Cha]-NH2; SMILES CC[C@](C)(NC(=O)[C@H](CCCCN)NC(=O)[C@H](CC(N)=O)NC(=O)C(C)(C)NC(=O)[C@H](CC1CCCCC1)NC(=O)[C@H](Cc1ccncc1)NC(=O)[C@H](CCCNC(=N)N)NC(=O)[C@H]1CCCN1C(=O)[C@H](CO)NC(C)=O)C(=O)N[C@H](C(=O)N[C@@H](CCCNC(=N)N)C(=O)N[C@@H](CCC(N)=O)C(=O)N[C@@H](CCCNC(=N)N)C(=O)N[C@@H](CC1CCCCC1)C(N)=O)[C@@H](C)O) [compound No. 231] | 0.85 | 2.1 |
| Ac-[D-Pro24, Pya(4)26, Cha27,36, D-Iva28,31, Lys30]-PYY(23-36) (Ac-S[dP]R[4Pal][Cha][dIva]NK[dIva]TRQR[Cha]-NH2; SMILES CC[C@@](C)(NC(=O)[C@H](CC1CCCCC1)NC(=O)[C@H](Cc1ccncc1)NC(=O)[C@H](CCCNC(=N)N)NC(=O)[C@H]1CCCN1C(=O)[C@H](CO)NC(C)=O)C(=O)N[C@@H](CC(N)=O)C(=O)N[C@@H](CCCCN)C(=O)N[C@](C)(CC)C(=O)N[C@H](C(=O)N[C@@H](CCCNC(=N)N)C(=O)N[C@@H](CCC(N)=O)C(=O)N[C@@H](CCCNC(=N)N)C(=O)N[C@@H](CC1CCCCC1)C(N)=O)[C@@H](C)O) [compound No. 247] | 0.70 | 1.6 |
| Ac-[D-Pro24, Pya(4)26, Cha27,36, D-Iva28, Lys30, Aib31]-PYY(23-36) (Ac-S[dP]R[4Pal][Cha][dIva]NK[Aib]TRQR[Cha]-NH2; SMILES CC[C@@](C)(NC(=O)[C@H](CC1CCCCC1)NC(=O)[C@H](Cc1ccncc1)NC(=O)[C@H](CCCNC(=N)N)NC(=O)[C@H]1CCCN1C(=O)[C@H](CO)NC(C)=O)C(=O)N[C@@H](CC(N)=O)C(=O)N[C@@H](CCCCN)C(=O)NC(C)(C)C(=O)N[C@H](C(=O)N[C@@H](CCCNC(=N)N)C(=O)N[C@@H](CCC(N)=O)C(=O)N[C@@H](CCCNC(=N)N)C(=O)N[C@@H](CC1CCCCC1)C(N)=O)[C@@H](C)O) [compound No. 234] | 1.7 | 2.6 |
| Ac-[D-Pro24, Pya(4)26, Cha27,36, D-Iva28, Lys30, Iva31]-PYY(23-36) (Ac-S[dP]R[4Pal][Cha][dIva]NK[Iva]TRQR[Cha]-NH2; SMILES CC[C@@](C)(NC(=O)[C@H](CC1CCCCC1)NC(=O)[C@H](Cc1ccncc1)NC(=O)[C@H](CCCNC(=N)N)NC(=O)[C@H]1CCCN1C(=O)[C@H](CO)NC(C)=O)C(=O)N[C@@H](CC(N)=O)C(=O)N[C@@H](CCCCN)C(=O)N[C@@](C)(CC)C(=O)N[C@H](C(=O)N[C@@H](CCCNC(=N)N)C(=O)N[C@@H](CCC(N)=O)C(=O)N[C@@H](CCCNC(=N)N)C(=O)N[C@@H](CC1CCCCC1)C(N)=O)[C@@H](C)O) [compound No. 248] | 3.4 | 1.1 |
| Ac-[D-Pro24, Pya(4)26, Cha27,36, Iva28,31, Lys30]-PYY(23-36) (Ac-S[dP]R[4Pal][Cha][Iva]NK[Iva]TRQR[Cha]-NH2; SMILES CC[C@](C)(NC(=O)[C@H](CC1CCCCC1)NC(=O)[C@H](Cc1ccncc1)NC(=O)[C@H](CCCNC(=N)N)NC(=O)[C@H]1CCCN1C(=O)[C@H](CO)NC(C)=O)C(=O)N[C@@H](CC(N)=O)C(=O)N[C@@H](CCCCN)C(=O)N[C@@](C)(CC)C(=O)N[C@H](C(=O)N[C@@H](CCCNC(=N)N)C(=O)N[C@@H](CCC(N)=O)C(=O)N[C@@H](CCCNC(=N)N)C(=O)N[C@@H](CC1CCCCC1)C(N)=O)[C@@H](C)O) [compound No. 246] | 0.31 | 1 |
| Ac-[D-Pro24, Pya(4)26, Cha27, Aib28,31, Lys30, Phe(2Me)36]-PYY(23-36) (Ac-S[dP]R[4Pal][Cha][Aib]NK[Aib]TRQR[Phe(2-Me)]-NH2; SMILES CC(=O)N[C@@H](CO)C(=O)N1CCC[C@@H]1C(=O)N[C@@H](CCCNC(=N)N)C(=O)N[C@@H](Cc1ccncc1)C(=O)N[C@@H](CC1CCCCC1)C(=O)NC(C)(C)C(=O)N[C@@H](CC(N)=O)C(=O)N[C@@H](CCCCN)C(=O)NC(C)(C)C(=O)N[C@H](C(=O)N[C@@H](CCCNC(=N)N)C(=O)N[C@@H](CCC(N)=O)C(=O)N[C@@H](CCCNC(=N)N)C(=O)N[C@@H](Cc1ccccc1C)C(N)=O)[C@@H](C)O) [compound No. 257] | 1.0 | 0.98 |
| Ac-[D-Pro24, Pya(4)26, Cha27, Aib28,31, Lys30, Phe(3Me)36]-PYY(23-36) (Ac-S[dP]R[4Pal][Cha][Aib]NK[Aib]TRQR[Phe(3-Me)]-NH2; SMILES CC(=O)N[C@@H](CO)C(=O)N1CCC[C@@H]1C(=O)N[C@@H](CCCNC(=N)N)C(=O)N[C@@H](Cc1ccncc1)C(=O)N[C@@H](CC1CCCCC1)C(=O)NC(C)(C)C(=O)N[C@@H](CC(N)=O)C(=O)N[C@@H](CCCCN)C(=O)NC(C)(C)C(=O)N[C@H](C(=O)N[C@@H](CCCNC(=N)N)C(=O)N[C@@H](CCC(N)=O)C(=O)N[C@@H](CCCNC(=N)N)C(=O)N[C@@H](Cc1cccc(C)c1)C(N)=O)[C@@H](C)O) [compound No. 260] | 0.91 | 1.2 |
| Ac-[D-Pro24, Pya(4)26, Nal(1)27, Aib28,31, Lys30, Cha36]-PYY(23-36) (Ac-S[dP]R[4Pal][1Nal][Aib]NK[Aib]TRQR[Cha]-NH2; SMILES CC(=O)N[C@@H](CO)C(=O)N1CCC[C@@H]1C(=O)N[C@@H](CCCNC(=N)N)C(=O)N[C@@H](Cc1ccncc1)C(=O)N[C@@H](Cc1cccc2ccccc12)C(=O)NC(C)(C)C(=O)N[C@@H](CC(N)=O)C(=O)N[C@@H](CCCCN)C(=O)NC(C)(C)C(=O)N[C@H](C(=O)N[C@@H](CCCNC(=N)N)C(=O)N[C@@H](CCC(N)=O)C(=O)N[C@@H](CCCNC(=N)N)C(=O)N[C@@H](CC1CCCCC1)C(N)=O)[C@@H](C)O) [compound No. 306] | 2.9 | 1.7 |
| Ac-[D-Pro24, Pya(4)26, Phe(4F)27, Aib28,31, Lys30, Cha36]-PYY(23-36) (Ac-S[dP]R[4Pal][Phe(4-F)][Aib]NK[Aib]TRQR[Cha]-NH2; SMILES CC(=O)N[C@@H](CO)C(=O)N1CCC[C@@H]1C(=O)N[C@@H](CCCNC(=N)N)C(=O)N[C@@H](Cc1ccncc1)C(=O)N[C@@H](Cc1ccc(F)cc1)C(=O)NC(C)(C)C(=O)N[C@@H](CC(N)=O)C(=O)N[C@@H](CCCCN)C(=O)NC(C)(C)C(=O)N[C@H](C(=O)N[C@@H](CCCNC(=N)N)C(=O)N[C@@H](CCC(N)=O)C(=O)N[C@@H](CCCNC(=N)N)C(=O)N[C@@H](CC1CCCCC1)C(N)=O)[C@@H](C)O) [compound No. 305] | 10 | 3.9 |
| Ac-[D-Pro24, Tyr(Me)26, Cha27,36, Aib28,31, Lys30]-PYY(23-36) (Ac-S[dP]R[Tyr(Me)][Cha][Aib]NK[Aib]TRQR[Cha]-NH2; SMILES COc1ccc(C[C@H](NC(=O)[C@H](CCCNC(=N)N)NC(=O)[C@H]2CCCN2C(=O)[C@H](CO)NC(C)=O)C(=O)N[C@@H](CC2CCCCC2)C(=O)NC(C)(C)C(=O)N[C@@H](CC(N)=O)C(=O)N[C@@H](CCCCN)C(=O)NC(C)(C)C(=O)N[C@H](C(=O)N[C@@H](CCCNC(=N)N)C(=O)N[C@@H](CCC(N)=O)C(=O)N[C@@H](CCCNC(=N)N)C(=O)N[C@@H](CC2CCCCC2)C(N)=O)[C@@H](C)O)cc1) [compound No. 348] | 0.88 | 1.4 |
| Ac-[D-Ser23, MeAla24, Cha27,28,36, Aib31]-PYY(23-36) (Ac-[dS][NMeA]RH[Cha][Cha]NL[Aib]TRQR[Cha]-NH2; SMILES CC(=O)N[C@H](CO)C(=O)N(C)[C@@H](C)C(=O)N[C@@H](CCCNC(=N)N)C(=O)N[C@@H](Cc1c[nH]cn1)C(=O)N[C@@H](CC1CCCCC1)C(=O)N[C@@H](CC1CCCCC1)C(=O)N[C@@H](CC(N)=O)C(=O)N[C@@H](CC(C)C)C(=O)NC(C)(C)C(=O)N[C@H](C(=O)N[C@@H](CCCNC(=N)N)C(=O)N[C@@H](CCC(N)=O)C(=O)N[C@@H](CCCNC(=N)N)C(=O)N[C@@H](CC1CCCCC1)C(N)=O)[C@@H](C)O) [compound No. 109] | 6.1 | 5.1 |
| Ac-[D-Ser23, Sar24, Cha27,28,36, Aib31]-PYY(23-36) (Ac-[dS][Sar]RH[Cha][Cha]NL[Aib]TRQR[Cha]-NH2; SMILES CC(=O)N[C@H](CO)C(=O)N(C)CC(=O)N[C@@H](CCCNC(=N)N)C(=O)N[C@@H](Cc1c[nH]cn1)C(=O)N[C@@H](CC1CCCCC1)C(=O)N[C@@H](CC1CCCCC1)C(=O)N[C@@H](CC(N)=O)C(=O)N[C@@H](CC(C)C)C(=O)NC(C)(C)C(=O)N[C@H](C(=O)N[C@@H](CCCNC(=N)N)C(=O)N[C@@H](CCC(N)=O)C(=O)N[C@@H](CCCNC(=N)N)C(=O)N[C@@H](CC1CCCCC1)C(N)=O)[C@@H](C)O) [compound No. 111] | 6.6 | 5.3 |
